Laboratory results taken from US20140363428A1 (Chugai, published 2014).

Target: T1, soluble human FcRn (human, UniProt P55899 24-297; P61769 21-119)
T1 construct: Heterodimer of FcRn alpha chain and beta2-microglobulin; also called hFcRn
Test: SPR (Biacore T100), antibody captured by protein L, hFcRn as analyte, pH 7.0, 25 C;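 further: KD calculated from fitted association and dissociation rate constants of the sensorgrams, protein L amine-coupled to the sensor chip, sodium phosphate running buffer with NaCl and Tween20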

T1 sequence (P55899 24-297 limits assumed, chain 1 of 2): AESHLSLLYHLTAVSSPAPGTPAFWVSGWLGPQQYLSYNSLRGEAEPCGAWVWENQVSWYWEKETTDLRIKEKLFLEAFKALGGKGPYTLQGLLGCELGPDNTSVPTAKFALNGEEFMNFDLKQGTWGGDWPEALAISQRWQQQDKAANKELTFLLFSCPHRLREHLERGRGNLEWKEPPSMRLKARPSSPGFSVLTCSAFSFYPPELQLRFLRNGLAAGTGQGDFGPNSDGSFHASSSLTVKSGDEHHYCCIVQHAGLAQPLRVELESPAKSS
T1 sequence (P61769 21-119 limits assumed, chain 2 of 2): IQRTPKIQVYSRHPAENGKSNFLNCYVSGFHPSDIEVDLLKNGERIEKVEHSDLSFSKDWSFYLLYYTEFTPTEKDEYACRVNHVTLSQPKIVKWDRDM

Binder	Kd
IgG1-F1191 (antibody, EU numbering; copies: 2 + 2) heavy: QVQLQESGPGLVKPSETLSLTCAVSGHSISHDHAWSWVRQPPGEGLEWIGFISYSGITNYNPSLQGRVTISRDNSKNTLYLQMNSLRAEDTAVYYCARSLARTTAMDYWGEGTLVTVSSASTKGPSVFPLAPSSKSTSGGTAALGCLVKDYFPEPVTVSWNSGALTSGVHTFPAVLQSSGLYSLSSVVTVPSSSLGTQTYICNVNHKPSNTKVDKKVEPKSCDKTHTCPPCPAPELLGGPSVFLFPPKPKDTLYISRTPEVTCVVVDVSHEDPEVKFNWYVDGVEVHNAKTKPREEQYNSTYRVVSVLTVLHQDWLNGKEYKCKVSNKALPAPIEKTISKAKGQPREPQVYTLPPSRDELTKNQVSLTCLVKGFYPSDIAVEWESNGQPENNYKTTPPVLDSDGSFFLYSKLTVDKSRWQQGNVFSCSVMHEALHYHVARKELSLSP light: not shown	0.21 µM
IgG1-F1192 (antibody, EU numbering; copies: 2 + 2) heavy: QVQLQESGPGLVKPSETLSLTCAVSGHSISHDHAWSWVRQPPGEGLEWIGFISYSGITNYNPSLQGRVTISRDNSKNTLYLQMNSLRAEDTAVYYCARSLARTTAMDYWGEGTLVTVSSASTKGPSVFPLAPSSKSTSGGTAALGCLVKDYFPEPVTVSWNSGALTSGVHTFPAVLQSSGLYSLSSVVTVPSSSLGTQTYICNVNHKPSNTKVDKKVEPKSCDKTHTCPPCPAPELLGGPSVFLFPPKPKDTLYISRTPEVTCVVVDVSHEDPEVKFNWYVDGVEVHNAKTKPREEQYNSTYRVVSVLTVLHQDWLNGKEYKCKVSNKALPAPIEKTISKAKGQPREPQVYTLPPSRDELTKNQVSLTCLVKGFYPSDIAVEWESNGQPENNYKTTPPVLDSDGSFFLYSKLTVDKSRWQQGNVFSCSVMHEALHYHVGRKELSLSP light: not shown	0.13 µM
IgG1-F1194 (antibody, EU numbering; copies: 2 + 2) heavy: QVQLQESGPGLVKPSETLSLTCAVSGHSISHDHAWSWVRQPPGEGLEWIGFISYSGITNYNPSLQGRVTISRDNSKNTLYLQMNSLRAEDTAVYYCARSLARTTAMDYWGEGTLVTVSSASTKGPSVFPLAPSSKSTSGGTAALGCLVKDYFPEPVTVSWNSGALTSGVHTFPAVLQSSGLYSLSSVVTVPSSSLGTQTYICNVNHKPSNTKVDKKVEPKSCDKTHTCPPCPAPELLGGPSVFLFPPKPKDTLYISRTPEVTCVVVDVSHEDPEVKFNWYVDGVEVHNAKTKPREEQYNSTYRVVSVLTVLHQDWLNGKEYKCKVSNKALPAPIEKTISKAKGQPREPQVYTLPPSRDELTKNQVSLTCLVKGFYPSDIAVEWESNGQPENNYKTTPPVLDSDGSFFLYSKLTVDKSRWQQGNVFSCSVMHEALHYHVTRDELSLSP light: not shown	0.16 µM
IgG1-F1195 (antibody, EU numbering; copies: 2 + 2) heavy: QVQLQESGPGLVKPSETLSLTCAVSGHSISHDHAWSWVRQPPGEGLEWIGFISYSGITNYNPSLQGRVTISRDNSKNTLYLQMNSLRAEDTAVYYCARSLARTTAMDYWGEGTLVTVSSASTKGPSVFPLAPSSKSTSGGTAALGCLVKDYFPEPVTVSWNSGALTSGVHTFPAVLQSSGLYSLSSVVTVPSSSLGTQTYICNVNHKPSNTKVDKKVEPKSCDKTHTCPPCPAPELLGGPSVFLFPPKPKDTLYISRTPEVTCVVVDVSHEDPEVKFNWYVDGVEVHNAKTKPREEQYNSTYRVVSVLTVLHQDWLNGKEYKCKVSNKALPAPIEKTISKAKGQPREPQVYTLPPSRDELTKNQVSLTCLVKGFYPSDIAVEWESNGQPENNYKTTPPVLDSDGSFFLYSKLTVDKSRWQQGNVFSCSVMHEALHYHVTRKEASLSP light: not shown	0.18 µM
IgG1-F1196 (antibody, EU numbering; copies: 2 + 2) heavy: QVQLQESGPGLVKPSETLSLTCAVSGHSISHDHAWSWVRQPPGEGLEWIGFISYSGITNYNPSLQGRVTISRDNSKNTLYLQMNSLRAEDTAVYYCARSLARTTAMDYWGEGTLVTVSSASTKGPSVFPLAPSSKSTSGGTAALGCLVKDYFPEPVTVSWNSGALTSGVHTFPAVLQSSGLYSLSSVVTVPSSSLGTQTYICNVNHKPSNTKVDKKVEPKSCDKTHTCPPCPAPELLGGPSVFLFPPKPKDTLYISRTPEVTCVVVDVSHEDPEVKFNWYVDGVEVHNAKTKPREEQYNSTYRVVSVLTVLHQDWLNGKEYKCKVSNKALPAPIEKTISKAKGQPREPQVYTLPPSRDELTKNQVSLTCLVKGFYPSDIAVEWESNGQPENNYKTTPPVLDSDGSFFLYSKLTVDKSRWQQGNVFSCSVMHEALHYHVTRKEESLSP light: not shown	0.15 µM
IgG1-F1197 (antibody, EU numbering; copies: 2 + 2) heavy: QVQLQESGPGLVKPSETLSLTCAVSGHSISHDHAWSWVRQPPGEGLEWIGFISYSGITNYNPSLQGRVTISRDNSKNTLYLQMNSLRAEDTAVYYCARSLARTTAMDYWGEGTLVTVSSASTKGPSVFPLAPSSKSTSGGTAALGCLVKDYFPEPVTVSWNSGALTSGVHTFPAVLQSSGLYSLSSVVTVPSSSLGTQTYICNVNHKPSNTKVDKKVEPKSCDKTHTCPPCPAPELLGGPSVFLFPPKPKDTLYITRTPEVTCVVVDVSHEDPEVKFNWYVDGVEVHNAKTKPREEQYNSTYRVVSVLTVLHQDWLNGKEYKCKVSNKALPAPIEKTISKAKGQPREPQVYTLPPSRDELTKNQVSLTCLVKGFYPSDIAVEWESNGQPENNYKTTPPVLDSDGSFFLYSKLTVDKSRWQQGNVFSCSVMHEALHYHVTRKELSLSP light: not shown	0.095 µM
IgG1-F1198 (antibody, EU numbering; copies: 2 + 2) heavy: QVQLQESGPGLVKPSETLSLTCAVSGHSISHDHAWSWVRQPPGEGLEWIGFISYSGITNYNPSLQGRVTISRDNSKNTLYLQMNSLRAEDTAVYYCARSLARTTAMDYWGEGTLVTVSSASTKGPSVFPLAPSSKSTSGGTAALGCLVKDYFPEPVTVSWNSGALTSGVHTFPAVLQSSGLYSLSSVVTVPSSSLGTQTYICNVNHKPSNTKVDKKVEPKSCDKTHTCPPCPAPELLGGPSVFLFPPKPKDTLYISREPEVTCVVVDVSHEDPEVKFNWYVDGVEVHNAKTKPREEQYNSTYRVVSVLTVLHQDWLNGKEYKCKVSNKALPAPIEKTISKAKGQPREPQVYTLPPSRDELTKNQVSLTCLVKGFYPSDIAVEWESNGQPENNYKTTPPVLDSDGSFFLYSKLTVDKSRWQQGNVFSCSVMHEALHYHVTRKELSLSP light: not shown	0.078 µM
IgG1-F1199 (antibody, EU numbering; copies: 2 + 2) heavy: QVQLQESGPGLVKPSETLSLTCAVSGHSISHDHAWSWVRQPPGEGLEWIGFISYSGITNYNPSLQGRVTISRDNSKNTLYLQMNSLRAEDTAVYYCARSLARTTAMDYWGEGTLVTVSSASTKGPSVFPLAPSSKSTSGGTAALGCLVKDYFPEPVTVSWNSGALTSGVHTFPAVLQSSGLYSLSSVVTVPSSSLGTQTYICNVNHKPSNTKVDKKVEPKSCDKTHTCPPCPAPELLGGPSVFLFPPKPKDTLYITREPEVTCVVVDVSHEDPEVKFNWYVDGVEVHNAKTKPREEQYNSTYRVVSVLTVLHQDWLNGKEYKCKVSNKALPAPIEKTISKAKGQPREPQVYTLPPSRDELTKNQVSLTCLVKGFYPSDIAVEWESNGQPENNYKTTPPVLDSDGSFFLYSKLTVDKSRWQQGNVFSCSVMHEALHYHVTRKELSLSP light: not shown	0.062 µM
IgG1-F1200 (antibody, EU numbering; copies: 2 + 2) heavy: QVQLQESGPGLVKPSETLSLTCAVSGHSISHDHAWSWVRQPPGEGLEWIGFISYSGITNYNPSLQGRVTISRDNSKNTLYLQMNSLRAEDTAVYYCARSLARTTAMDYWGEGTLVTVSSASTKGPSVFPLAPSSKSTSGGTAALGCLVKDYFPEPVTVSWNSGALTSGVHTFPAVLQSSGLYSLSSVVTVPSSSLGTQTYICNVNHKPSNTKVDKKVEPKSCDKTHTCPPCPAPELLGGPSVFLFPPKPKDVLYITRTPEVTCVVVDVSHEDPEVKFNWYVDGVEVHNAKTKPREEQYNSTYRVVSVLTVLHQDWLNGKEYKCKVSNKALPAPIEKTISKAKGQPREPQVYTLPPSRDELTKNQVSLTCLVKGFYPSDIAVEWESNGQPENNYKTTPPVLDSDGSFFLYSKLTVDKSRWQQGNVFSCSVMHEALHYHVTRKELSLSP light: not shown	0.13 µM
IgG1-F1201 (antibody, EU numbering; copies: 2 + 2) heavy: QVQLQESGPGLVKPSETLSLTCAVSGHSISHDHAWSWVRQPPGEGLEWIGFISYSGITNYNPSLQGRVTISRDNSKNTLYLQMNSLRAEDTAVYYCARSLARTTAMDYWGEGTLVTVSSASTKGPSVFPLAPSSKSTSGGTAALGCLVKDYFPEPVTVSWNSGALTSGVHTFPAVLQSSGLYSLSSVVTVPSSSLGTQTYICNVNHKPSNTKVDKKVEPKSCDKTHTCPPCPAPELLGGPSVFLFPPKPKDVLYISREPEVTCVVVDVSHEDPEVKFNWYVDGVEVHNAKTKPREEQYNSTYRVVSVLTVLHQDWLNGKEYKCKVSNKALPAPIEKTISKAKGQPREPQVYTLPPSRDELTKNQVSLTCLVKGFYPSDIAVEWESNGQPENNYKTTPPVLDSDGSFFLYSKLTVDKSRWQQGNVFSCSVMHEALHYHVTRKELSLSP light: not shown	0.11 µM
IgG1-F1202 (antibody, EU numbering; copies: 2 + 2) heavy: QVQLQESGPGLVKPSETLSLTCAVSGHSISHDHAWSWVRQPPGEGLEWIGFISYSGITNYNPSLQGRVTISRDNSKNTLYLQMNSLRAEDTAVYYCARSLARTTAMDYWGEGTLVTVSSASTKGPSVFPLAPSSKSTSGGTAALGCLVKDYFPEPVTVSWNSGALTSGVHTFPAVLQSSGLYSLSSVVTVPSSSLGTQTYICNVNHKPSNTKVDKKVEPKSCDKTHTCPPCPAPELLGGPSVFLFPPKPKDVLYITREPEVTCVVVDVSHEDPEVKFNWYVDGVEVHNAKTKPREEQYNSTYRVVSVLTVLHQDWLNGKEYKCKVSNKALPAPIEKTISKAKGQPREPQVYTLPPSRDELTKNQVSLTCLVKGFYPSDIAVEWESNGQPENNYKTTPPVLDSDGSFFLYSKLTVDKSRWQQGNVFSCSVMHEALHYHVTRKELSLSP light: not shown	0.088 µM
IgG1-F1203 (antibody, EU numbering; copies: 2 + 2) heavy: QVQLQESGPGLVKPSETLSLTCAVSGHSISHDHAWSWVRQPPGEGLEWIGFISYSGITNYNPSLQGRVTISRDNSKNTLYLQMNSLRAEDTAVYYCARSLARTTAMDYWGEGTLVTVSSASTKGPSVFPLAPSSKSTSGGTAALGCLVKDYFPEPVTVSWNSGALTSGVHTFPAVLQSSGLYSLSSVVTVPSSSLGTQTYICNVNHKPSNTKVDKKVEPKSCDKTHTCPPCPAPELLGGPSVFLFPPKPKDTLYISRQPEVTCVVVDVSHEDPEVKFNWYVDGVEVHNAKTKPREEQYNSTYRVVSVLTVLHQDWLNGKEYKCKVSNKALPAPIEKTISKAKGQPREPQVYTLPPSRDELTKNQVSLTCLVKGFYPSDIAVEWESNGQPENNYKTTPPVLDSDGSFFLYSKLTVDKSRWQQGNVFSCSVMHEALHYHVTRKELSLSP light: not shown	0.15 µM
